# Laboratory results from the DeepSol protein solubility set.
# Experiment: soluble on expression in E. coli; label from the status in PepcDB or PDB records
row,Sequence,soluble on expression in E. coli
1,MGLELRAIQSPIFSEPFDFTFHAQAFTLLVGSSGSGKSSLFQMIAQVSSLPYSGQVLIDGSEVSQLSIVERVQTVGILLQNPNHQFTMESLFEELVFTMENIGYHLQEIDSKIAEVVQQCRCKDILHRLIHHLSGGEKQKAALAVLFAMNPRVYLLDEPFASIDRKSRIEILEILKELVYDGKTVILCDHDLSDYKAYIDHMVELRDGKLREVFQIPSYEMTQVASKEVASSPELFHMNRVTGELGNRPLFSIADFTFYQGISCILGDNGVGKSTLFRSILQFQKYKGSITWKGSVLKKKKSLYRDLTGVVQEAEKQFIRVSLREELQLDGPDSERNQRIFQALRYFDLEQAVDKSPYQLSGGQQKILQLLTILTSKASVILLDEPFAGLDDRACHYFCKWIVEERNQGRSFLLISHRLDPLISVVDYWIEMTSQGLRHVKEVTITKPLTSQSSNTQGEVR,not soluble
2,KPGARIGVGMEYQFNDMISLQPSLFFSQKGAKYSSGFDGNIIDADADVKINQLYLELPVNVQFRFNIADNTNLVIATGPYLACGVGGKAKFDGDASVGGIHINGDDKIDTFGDDGLDYNRFDAGWNIGLGVEFGKILVGLDTQLGFCKVMDGDAPHNANIGITLGYKF,not soluble
3,MEHPEGEDPTLLPPALAARALGVSPATLRRYAALWERLVGPLPRDPRGGRLWPKEALARLRAAREAHLREGLPLEEALARVQGDFPALALPSEGEALALLRALAERLERVEGELRALREENARLREALKALEPPRRRPWWRFWGH,soluble
4,MANVEAIPGYLTATFPTLPIEIKDYVSAILKENSDEITSLDEVMDAVGEHLQASVENLCEVGAKNACQQLLKLLHGDNLPKAIKQQEATTKRLEQTVDMAAENQNFEALQSIWKVQTRDTPTTVDKKKLAKAEDRAAAKAEARADAPVERKKKKNEPSATASQAPIRDSGARGANSKDIKLESVDISIGTKQLLSCADVTMAFGRRYGLVGRNGIGKTTLLKMISSQQLKIPAGISMLSVEQEVEGDDTLVLDAVLMSDTKRQTLLDREKTLQSRINKDNINDAEKTKWNDELSKLYIEMEALQLDKAPARASSLLYGLGFTPDEQKRPTKEFSGGWRMRVALARALFVKPDLLLLDEPTNMLDMRAVYWLEGHLQGWEGTILTVSHDRKFLNEICTDIVHLHTRRLDHYKGNYDQFEKTMKEKLTQQQREYESQQQLRQHTQEFIDKFRYNAKRAPMVQSRIKMLEKLPVLLPVELESDIHFKFPECEVLSNPVLQLDEVSFRYNEDSPYLFRKLNLGTHANSRICIVGENGAGKTTLLKLLLDDLQPSVGLRNVNRRIRIAYFTQHHVDQLDMETSAIEVLMKNHPGKTQEDYRAALGRFGLAGDMALQSVETLSGGQKSRLAFANLALMQPNYLILDEPTNHLDVETVEALGKALNVFNGGVVLVSHDEQLIELVCKELWVVKDRMVTTLEGGLEEYRKQVYKQLQLTA,not soluble
5,METEEEIQNVNVHHGHNIRRTRIEKNIKQDALAALVNMTQPNVSKYEKMRVIEDEMLNRFARALNVPVEYLKTLEEDAPSVVFENITNNVHDNKDSSMGSTGYNNDSITNTFNPIDKITELYERLLKEKDEKYAALEKRIQGLEQQNNNGK,not soluble
6,GMYAVPILNVYDFEVKKDKETSYKSATEDYVNKTMGVEQGVLGLFAATDERDKTTSYIVEIYNDYLAFSNHTKNQASKDFKAVIPQIAEGNLNSAEIDVQIAKDKKIEQNDNTFAVYTVIDVKPENDKEFAEIIKNIVETTFNEEGTLLVYLGTDRRNFNKWCLFEVYKDIDSYLNHRSAKYFKDYITQTKDMIAGKKRAELQVLKIENKGGLDYKKLY,soluble
7,MSLDPSKVTSMSAVEFTPLPTCLQHRSCDACMSSDLTFNCSWCHVLQRCSSGFDRYRQEWMDYGCAQEAEGRMCEDFQDEGHHHHHH,not soluble
8,GGHDVPLTNYLNAQYYTDITLGTPPQNFKVILDTGSSNLWVPSNECGSLACFLHSKYDHEASSSYKANGTEFAIQYGTGSLEGYISQDTLSIGDLTIPKQDFAEATSEPGLTFAFGKFDGILGLGYDTISVDKVVPPFYNAIQQDLLDEKRFAFYLGDTSKDTENGGEATFGGIDESKFKGDITWLPVRRKAYWEVKFEGIGLGDEYAELESHGAAIDTGTSLITLPSGLAEMINAEIGAKKGSTGQYTLDCNTRDNLPDLIFNFNGYNFTIGPYDYTLEVSGSCISAITPMDFPEPVGPLAIVGDAFLRKYYSIYDLGNNAVGLAKAI,soluble
9,MSLYKTADGREIFIVDAHTHFWDGSPENQRNIHGKQFVDCFYAYHSALSPPEEKWEKSRFEKYSEDDIYRDLFVDGPDDMAIIQTTVLGDFYKTGFGCIERSTRMAARNPGRFIVNGAFDPRDGEKALEYIHYMKETHDITGVKLYTAEWHGDSRGWKLTDPAAYKCFELCDKLGIRNMHVHKGPTIIPLSKDSFSVGDVDDAATDFQGLNWIVEHCGLPRLDDFCWIAVQETNVYGGLAVALPFIHTRPRYFAEVIAELLFWLGPDKILFGSDYAIWTPKWLVDRFWNFQIPEDIAAERGVQLTDEIKEKILGLNAARLYGIDVDAKRRDFADHPVLIAAEGHHHHHH,soluble
10,SDFANLSSTNKELSPQYNWVACGILEGGLKAAGVLEEGQYNRELAEAIAAKGEGFWTTQFPQIGDWNEDQAAALADRAQTCGLVKADTYLSELSSNFSS,soluble
11,MTQLKPGACWSDNPKKVLEMLSPMNIIAITRSIPENTPNSWFIYWLTKVEEGEVRENIYAISPTKLEILPDLVKKALKLGYDGVYIDGIEALVIENGFKSVAKFLLHIKDIVLAENKFIILTLDPRALKEEEIKIIEKEFKKLELSLEHHHHHH,soluble
12,LQSKLSLPKIPNVIECFDISHLSGTATVGSMVQFRGGRPDKHNYRRFKIESVEGIDDFASIAEVVRRRYSRLLEDKHEMPDLIIIDGGKGQLSSAFQELRKLRVKVPIISIAKREEEIYVPGLKSPLPIKKDEKASLFVQEIRDEAHRFAINYNRLLRQKALIQK,not soluble
13,MGSDKIHHHHHHMKSTGNIIADTICRTAELGLTITGASDAGDYTLIEADALDYTSTCPECSQPGVFRHHTHRMLIDLPIVGFPTKLFIRLPRYRCTNPTCKQKYFQAELSCADHGKKVTHRVTRWILQRLAIDRMSVHATAKALGLGWDLTCQLALDMCRELVYNDPHHLDGVYVIGVDEHKWSHNRAKHGDGFVTVIVDMTGHRYDSRCPARLLDVVPGRSADALRSWLGSRGEQFRNQIRIVSMDGFQGYATASKELIPSARRVMDPFHVVRLAGDKLTACRQRLQREKYQRRGLSQDPLYKNRKTLLTTHKWLSPRQQESLEQLWAYDKDYGALKLAWLAYQAIIDCYQMGNKREAKKKMRTIIDQLRVLKGPNKELAQLGRSLFKRLGDVLAYFDVGVSNGPVEAINGRLEHLRGIALGFRNLNHYILRCLIHSGQLVHKINAL,not soluble
14,MSLTDPVKIYQRKWIVGGWMKRSEIRKALEAWFDVERYEAIETLTLQQFYVEVERRILAYRMLLSRNTIPTFNRLMLDDYRNKILSGEIFFSGDTATIGHELARTYAVNPTTRSHAQFYAKTLSLTEATPELSGLSQSEFLSEYLKETSLNNLSRITVDIHLEEASTEEIIEHLKVLIPQWKRQLKMTSPAPREYRFGKSTFRKIIDYRLIPMMDLIFWGEDNGIKIPLSLISSLLHEDSDNDRDEGMLKATDYPLAMAFLTDASYLKSLEDYMMENNHLKDSPVEKHVEDDRNEGHHHHHH,not soluble
15,MGSDKIHHHHHHMNREVFITCAVTGSGGSQDRSPHVPRSPKQIADSAIDAAKAGAAIVHCHVRDPETGKPRRDVHLYREVTERIRDANVDVVLNLTAGMGGDMVFGSPEAPLPLNEKGTDMGGATNRMEHVRQCLPEICTLDCGTMNFAEADYVMTNTPGMLRAMGGMMTALGVKPEIEAFDTGHLWFAKQLVEEKVLNPDALVQLCMGVPWGAPDDLNTFMAMVNNVPSTWNWSAFAIGRNQMAYAAAAVLAGGNVRVGLEDNLWLDKGVLATNAQLVERAASIVTNLGARILGPEEVRKKLNLTKRAPIAAAA,not soluble
16,MGSDKIHHHHHHMKPEIALNLWQLLWQEYSARVNHARTYQQMITTAGGTVANDHIAFRSLRLLVDSPQGEVNLGIDYLAQFAEALGYVAAGEYNFAQTHLYARYYRHPQQEEFNLPKLFISELIVDELPANIAQLISKTVSAIPHQLASPVTLLKKDAEIETIAKQLQQVFTRPWLPPRRSVVEEVNQVTQYGAWVLLHGYGVNHFTGYVNGQNTPEYPDIDTTASGLAHLGVPMKAEIEGNVACGLRQTATQAVTEMVTVLDDNSGVEIQIPWTYAYYEIAQRYPVEVEPGKQILFDAFLGSNAQQLFEMTRLSK,not soluble
17,MSLKAVIFDLDGVITDTAEYHFLAWKHIAEQIDIPFDRDMNERLKGISREESLESILIFGGAETKYTNAEKQELMHRKNRDYQMLISKLTPEDLLPGIGRLLCQLKNENIKIGLASSSRNAPKILRRLAIIDDFHAIVDPTTLAKGKPDPDIFLTAAAMLDVSPADCAAIEDAEAGISAIKSAGMFAVGVGQGQPMLGADLVVRQTSDLTLELLHEEWEQYRIRESEGHHHHHH,soluble
18,MGSDKIHHHHHHMDRYPPFGFVRAVPIASSGNMTGESISNIATALVVGGGIGGMATAISLAERGVTVDLVDLDPEWRVYGAGITITGPTLRAYRRLGMLDEIKHKGAITSKTRLFRYDGTHMLDLDEPVIEEGLPATGGIMRPVLHHIMQKRVRELEIPVRLGLTVDALENVQGGVDVRFSDRTARRYDLVVGADSVFSRVRDLAFAHMGPAQPTGQGCWRISIRKPPGLDMGEFFLGHANPCGITACGPDTVYMWMLTPHVERDSHMDDEELFVTLKALLADFGGNAGWIRDNMTREDWINYRPLAAALQPRDWFNGRIVLVGDAVHATTPHLASGAGMAVESGIVLAEELARAGDVESALRAYQERRFDRCRDVIETSVAVGRLQLEHGDPQVHAKMLEGALGRLNQPF,not soluble
19,MSLQEPFSQLESEIQVLKSHIANISGLSVPKNVLKNADGSTLKSLSEASLKVIEKTIRITAHAVNLKLRIETDIANLKNQIKLLTETKEQQDALSKALEASSTLVKLEDRHERLTERIQALEKKIDEAIRQLSYKESMPLSKEEKLWIREVNGINALLNNAGEDSLALKIEDLKVQVTALSQNEHSANEHLTDAEIQKRQNSIILAKLSLWLQNDLEKLDEVKQSVTDCIRRLREGHHHHHH,soluble
20,SVTGIGSGFSELDEYTAGFQPSDMIIIAARPSAGKTAFALALARNAAVNFNTPVLFFSLEMAEIQLALRLMCAEAYVESQLVRRGQISPEMMNKIINSMDALADAKLFIDDTPGISIMELTAKTRRMKQEHGIGMVVVDYLQLVTPVRDGRSNREQEIAQISRSLKALAKELNIPVIALAQLNRSVEQRSGDRRPQLSDL,not soluble
21,MSLGQIKGDLHMHSTWSDGAFSIREMAEACIKKGYQYMAITDHSQYLKVANGLTAERLKQQAKEIDALNAEFENFRILKGVEMDILPDGTLDYDDDVLAEMDIVIASIHSSFNQPEHVIMKRLETALTNKHVDIIAHPTGRLIGRRAGYEIDIDQLIELARKTNTALELNANPARLDLRTEHLMKANEQGVTLVINTDAHNIEMLDDMKTGVTAARKGWTETKNVLNARSLKDVEAFLKRNDEGHHHHHH,soluble
22,MKLNRAIGVIDSGVGGLTVAKELIRQLPKERIIYLGDTARCPYGPRSREEVRQFTWEMTEHLLDLNIKMLVIACNTATAVVLEEMQKQLPIPVVGVIHPGSRTALKVTNTYHVGIIGTIGTVKSGAYEEALKSINNRVMVESLACPPFVELVESGNFESEMAYEVVRETLQPLKNTDIDTLILGCTHYPILGPVIKQVMGDKVQLISSGDETAREVSTILYHSKMLNEGEEQSDHLFLTTGKIGLFKEIASKWFGQPIENVKHIHLEKE,not soluble
